# Values of other authors, collected in patent publication US7754242B2, “Inhalable sustained therapeutic formulations” (Alkermes, Inc., priority 2002, dated 2010).
# Read-outs that look alike come from different tables or passages of the source.
# Tests used:
# [1] = human subjects; dry powder formulation via pulmonary delivery
# [2] = healthy volunteers; inhaled
# [3] = primates; dry powder formulation via pulmonary delivery
substance,measurement,setting,value
"insulin: Insulin given by pulmonary delivery (dry powder formulation, inhaled), literature reports",Time to peak insulin level,[1],about 20 minutes
same,Time to half-maximal action (glucose infusion rate),[2],about 30 minutes
same,Time to peak insulin level,[3],about 30 minutes
